Assay results: the supplement of paper PMC7877785
± gives the uncertainty stated by the source.

Experiment: self-splicing fitness, log relative to wild type (ln ratio); higher = more splicing; Tetrahymena group I intron in knt gene, E. coli kanamycin selection, DiMSum; sequences stand for … in CUCUCU…GGAGGGAAAAGUUAUCAGGCAUGCACCUGGUAGCUAGUCUUUAAACCAAUAGAUUGCAUCGGUUUAAAAGGCAAGACCGUCAAAUUGCGGGAAAGGGGUCAACAGCCGUUCAGUACCAAGUCUCAGGGGAAACUUUGAGAUGGCCUUGCAAAGGGUAUGGUAAUAAGCUGACGGACAUGGUCCUAACCACGCAGCCAAGUCCUAAGUCAACAGAUCUUCUGUUGAUAUGGAUGCAGUUCACAGACUAAAUGUCGGUCGGGGAAGAUGUAUUCUUCUCAUAAGAUAUAGUCGGACCUCUCCUUAAUGGGAGCUAGCGGAUGAAGUGAUGCAACACUGGAGCCGCUGGGAACUAAUUUGUAUGCGAAAGUAUAUUGAUUAGUUUUGGAGUACUCGUGGUCG
Method in brief: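 A randomised library covering all eight P1ex-region intron nucleotides was built with the intron in the knt kanamycin-resistance gene on pET-22b(+) and held in E. coli BL21(DE3). Cells were grown overnight at 37°C or 30°C on LB agar, with or without 25 μg/mL kanamycin, plus 100 μg/mL carbenicillin, 50 μM IPTG and 0.2% rhamnose, and pooled colonies were amplicon-sequenced on an Illumina HiSeq 2500. DiMSum fitness is the error-weighted combination of wild-type-normalised replicate fold changes, kanamycin versus none.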

Row | Sequence | self-splicing fitness (ln) (30 °C) | self-splicing fitness (ln) (37 °C)
1 | AGCAAGCAAUAUUACGGCAA | -0.272 ± 0.069 | -0.342 ± 0.086
2 | GCGAAGCAAUAUUACGGGGG | -2.43 ± 0.24 | -2.48 ± 0.34
3 | GCACAGCAAUAUUACGGCAU | -1.59 ± 0.095 | -0.16 ± 0.091
4 | UGGCAGCAAUAUUACGAGUG | -1.19 ± 0.11 | 0.196 ± 0.12
5 | GACUAGCAAUAUUACGAUAA | -0.678 ± 0.12 | -0.492 ± 0.13
6 | GCUGAGCAAUAUUACGCCUC | -1.67 ± 0.42 | -1.53 ± 0.49
7 | CGAAAGCAAUAUUACGCCUG | -0.16 ± 0.095 | 0.392 ± 0.11
8 | AACCAGCAAUAUUACGUGAC | -2.59 ± 0.087 | -1.37 ± 0.1
9 | AAGCAGCAAUAUUACGAAUG | -3.74 ± 0.18 | -2.45 ± 0.16
10 | AAGCAGCAAUAUUACGUUCG | -1.98 ± 0.089 | -0.509 ± 0.1
11 | GGCAAGCAAUAUUACGUAGU | -1.52 ± 0.098 | -0.197 ± 0.11
12 | AGCGAGCAAUAUUACGUAUG | -3.68 ± 0.35 | -3.3 ± 0.32
13 | GCGGAGCAAUAUUACGGUCG | -3.61 ± 0.26 | -2.41 ± 0.21
14 | UGCCAGCAAUAUUACGCCGC | -2.25 ± 0.23 | -1.49 ± 0.22
15 | UCGCAGCAAUAUUACGCCUG | -3.14 ± 0.23 | -1.28 ± 0.2
16 | CAUUAGCAAUAUUACGACAU | -3.364 ± 0.024 | -1.97 ± 0.036
17 | CUCAAGCAAUAUUACGUCUU | -3.42 ± 0.21 | -2.06 ± 0.16
18 | GAGCAGCAAUAUUACGCGUG | -1.92 ± 0.15 | -1.66 ± 0.18
19 | GCCGAGCAAUAUUACGACUC | -3.37 ± 0.48 | 0.198 ± 0.28
20 | ACGGAGCAAUAUUACGGAAU | -1.57 ± 0.39 | -2.5 ± 0.45
21 | GUCAAGCAAUAUUACGGGGU | -5.42 ± 0.25 | -4.15 ± 0.19
22 | ACGUAGCAAUAUUACGCACU | -1.46 ± 0.18 | -0.549 ± 0.23
23 | GGACAGCAAUAUUACGCCGC |  | -1.06 ± 0.5
24 | ACCUAGCAAUAUUACGCACA | -0.931 ± 0.078 | -0.476 ± 0.079

Row | Sequence | self-splicing fitness (ln) (30 °C) | self-splicing fitness (ln) (37 °C)
25 | CAGAAGCAAUAUUACGCCGU | -3.06 ± 0.21 | -1.94 ± 0.23
26 | CUGCAGCAAUAUUACGAGCA | -3.11 ± 0.21 | -2.38 ± 0.22
27 | GGCGAGCAAUAUUACGAAAG | -3.27 ± 0.3 | -2.77 ± 0.24
28 | UUCGAGCAAUAUUACGGAAG | -2.42 ± 0.22 | -2.12 ± 0.4
29 | CAUAAGCAAUAUUACGCUAA | -2.58 ± 0.3 | -0.864 ± 0.24
30 | UGCCAGCAAUAUUACGGUCU | -0.21 ± 0.059 | 0.456 ± 0.07
31 | AAGAAGCAAUAUUACGCUCG | -0.487 ± 0.078 | -0.257 ± 0.12
32 | ACGUAGCAAUAUUACGAAAU | -2.28 ± 0.19 | -1.3 ± 0.26
33 | GCGAAGCAAUAUUACGCCAU |  | -2.48 ± 0.36
34 | UUCCAGCAAUAUUACGUCCA | -1.05 ± 0.12 | -0.679 ± 0.14
35 | AAGCAGCAAUAUUACGUGCA | -0.892 ± 0.065 | -0.453 ± 0.084
36 | AAUUAGCAAUAUUACGUGGC | -3.39 ± 0.2 | -1.96 ± 0.24
37 | CAAUAGCAAUAUUACGCAGA | -3.78 ± 0.42 | -2.14 ± 0.18
38 | CCUGAGCAAUAUUACGGACU | -1.55 ± 0.13 | -3.3 ± 0.32
39 | CGAAAGCAAUAUUACGAGGA | -3.36 ± 0.25 | -1.13 ± 0.21
40 | ACCGAGCAAUAUUACGAGGC | -4.59 ± 0.29 | -3.23 ± 0.33
41 | GGUCAGCAAUAUUACGACCG | -1.89 ± 0.17 | -1.26 ± 0.19
42 | UGAGAGCAAUAUUACGUUCC |  | -2.11 ± 0.47
43 | UGCAAGCAAUAUUACGCGAA | -2.03 ± 0.1 | -0.581 ± 0.083
44 | CUUCAGCAAUAUUACGCGGA | -1.83 ± 0.21 | -2.74 ± 0.3
45 | AAAGAGCAAUAUUACGCUCU |  | -2.45 ± 0.49
46 | UCCCAGCAAUAUUACGACCA | -1.65 ± 0.13 | -1.06 ± 0.23
47 | GACGAGCAAUAUUACGAUGC | -3.82 ± 0.44 | -0.275 ± 0.21
48 | AUAUAGCAAUAUUACGUGAU | -1.4 ± 0.092 | -0.895 ± 0.14

Row | Sequence | self-splicing fitness (ln) (30 °C) | self-splicing fitness (ln) (37 °C)
49 | AUUUAGCAAUAUUACGGUUU | -1.02 ± 0.096 | -0.0857 ± 0.12
50 | GAACAGCAAUAUUACGGUGG | -2 ± 0.095 | -1.19 ± 0.1
51 | GUGCAGCAAUAUUACGUACG | -2.19 ± 0.086 | -1.18 ± 0.08
52 | CGUGAGCAAUAUUACGAGCA | -1.58 ± 0.085 | -0.55 ± 0.11
53 | GUGAAGCAAUAUUACGUAAU | -1.19 ± 0.057 | -0.668 ± 0.069
54 | UGUCAGCAAUAUUACGCUAG | -0.41 ± 0.061 | -0.214 ± 0.077
55 | CUUCAGCAAUAUUACGAGGU | -4.39 ± 0.42 | -2.9 ± 0.27
56 | UCAAAGCAAUAUUACGGGUC | -3.59 ± 0.23 | -3.14 ± 0.25
57 | GACAAGCAAUAUUACGUCGG | -2.91 ± 0.14 | -2.43 ± 0.18
58 | UACGAGCAAUAUUACGCUUA | -1.96 ± 0.25 | -0.594 ± 0.22
59 | GACGAGCAAUAUUACGUAUU | -3.7 ± 0.21 | -2.44 ± 0.18
60 | UUUUAGCAAUAUUACGCUUG | -0.327 ± 0.2 | -0.13 ± 0.19
61 | GCGGAGCAAUAUUACGGAAU | -2.29 ± 0.21 | -3.42 ± 0.35
62 | CCUAAGCAAUAUUACGAUAG | -1.12 ± 0.065 | -0.285 ± 0.074
63 | AGCCAGCAAUAUUACGGCAG | -1.01 ± 0.065 | -1.18 ± 0.092
64 | GCCUAGCAAUAUUACGCCUU | -1.15 ± 0.086 | -0.212 ± 0.1
65 | AUUAAGCAAUAUUACGCACU | -0.21 ± 0.13 | -0.414 ± 0.13
66 | AGCCAGCAAUAUUACGUUCU | -0.687 ± 0.053 | -0.266 ± 0.068
67 | GUUAAGCAAUAUUACGGAUC | -0.695 ± 0.09 | 0.135 ± 0.12
68 | UAGCAGCAAUAUUACGUCCU | -1.1 ± 0.068 | -0.435 ± 0.087
69 | GGCAAGCAAUAUUACGUCCG | -3.73 ± 0.27 | -1.61 ± 0.2
70 | UGUCAGCAAUAUUACGUCGU | -1.49 ± 0.1 | -0.759 ± 0.11
71 | UUUCAGCAAUAUUACGCUCA | -0.608 ± 0.17 | 0.404 ± 0.18
72 | CGGAAGCAAUAUUACGUAAU | -2.35 ± 0.19 | -1.23 ± 0.19

Row | Sequence | self-splicing fitness (ln) (30 °C) | self-splicing fitness (ln) (37 °C)
73 | AGUGAGCAAUAUUACGUUAA | -2.56 ± 0.31 | -1.57 ± 0.25
74 | ACUAAGCAAUAUUACGGAAA | -2.78 ± 0.37 | -1.7 ± 0.23
75 | ACGCAGCAAUAUUACGGUCG | -0.525 ± 0.055 | -0.355 ± 0.072
76 | AUAAAGCAAUAUUACGCCUU | -0.274 ± 0.094 | 0.0912 ± 0.12
77 | UGCUAGCAAUAUUACGCCUG | -0.427 ± 0.18 | 0.294 ± 0.2
78 | AAGUAGCAAUAUUACGGUUG | -2.78 ± 0.1 | -2.16 ± 0.11
79 | CCGAAGCAAUAUUACGCAUG | -1.84 ± 0.11 | -0.892 ± 0.12
80 | AAGCAGCAAUAUUACGACCU | 0.301 ± 0.08 | 0.149 ± 0.11
81 | ACUCAGCAAUAUUACGGUUG | -4.32 ± 0.17 | -2.77 ± 0.18
82 | GACCAGCAAUAUUACGGCAU | 0.00655 ± 0.046 | 0.553 ± 0.068
83 | AACAAGCAAUAUUACGAUAC | -3.73 ± 0.19 | -1.71 ± 0.12
84 | GCCAAGCAAUAUUACGCCCU | -1.4 ± 0.13 | -0.504 ± 0.16
85 | GGUUAGCAAUAUUACGCCUG | -2.89 ± 0.38 | -2.7 ± 0.48
86 | GACAAGCAAUAUUACGUGCG | -1.16 ± 0.068 | -0.532 ± 0.081
87 | CUUUAGCAAUAUUACGCCGU | -2.68 ± 0.41 | 
88 | CGCGAGCAAUAUUACGUUGG | -3.22 ± 0.17 | -2 ± 0.2
89 | AACAAGCAAUAUUACGUCUA | -0.68 ± 0.053 | 0.247 ± 0.063
90 | AUCUAGCAAUAUUACGGAUC | -3.03 ± 0.17 | -2.33 ± 0.24
91 | AUGCAGCAAUAUUACGUGUA | -2.34 ± 0.11 | -0.835 ± 0.091
92 | GCACAGCAAUAUUACGGCGA | -1.16 ± 0.083 | -0.758 ± 0.095
93 | AGUAAGCAAUAUUACGUAUU | -2.89 ± 0.12 | -3.05 ± 0.19
94 | ACAUAGCAAUAUUACGACUU | 0.0662 ± 0.074 | -0.163 ± 0.087
95 | UUUAAGCAAUAUUACGACCC | -1.3 ± 0.31 | 0.0123 ± 0.28
96 | UACCAGCAAUAUUACGAAUA | -0.776 ± 0.086 | 0.199 ± 0.093
